Results published in US12365732 (23ANDME, dated 2025).

T1: hu-CD96 isoform 2 on CHO cells (human, UniProt P40200 22-585)
T1 construct: also called CHO-CD96 (isoform 2); CD96-CHOs
T1 sequence: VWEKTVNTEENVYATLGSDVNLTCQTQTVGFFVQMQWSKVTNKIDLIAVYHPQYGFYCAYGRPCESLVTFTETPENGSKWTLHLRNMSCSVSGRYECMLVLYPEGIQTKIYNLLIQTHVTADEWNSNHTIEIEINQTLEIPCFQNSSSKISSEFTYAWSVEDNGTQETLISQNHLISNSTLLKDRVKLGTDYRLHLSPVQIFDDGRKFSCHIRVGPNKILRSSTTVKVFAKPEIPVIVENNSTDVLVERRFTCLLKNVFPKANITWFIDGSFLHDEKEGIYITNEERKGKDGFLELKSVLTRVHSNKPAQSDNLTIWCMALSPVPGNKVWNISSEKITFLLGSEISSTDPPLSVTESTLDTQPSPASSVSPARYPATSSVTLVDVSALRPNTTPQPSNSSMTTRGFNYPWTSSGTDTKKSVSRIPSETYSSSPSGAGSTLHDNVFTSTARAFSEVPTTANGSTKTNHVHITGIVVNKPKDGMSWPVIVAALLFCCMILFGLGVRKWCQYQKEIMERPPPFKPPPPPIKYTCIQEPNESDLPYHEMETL

B1: h10G1 IgG (humanized 10G1) (antibody, V domains shown)
VH: EIQLVQSGSELKKPGASVKVSCKASGYPFTTYGMSWVRQAPGQGLEWMGWINTDSGVPTYADDFKGRFVFSLDTSVSTAYLQISSLKAEDTAVYFCARNIYYGWGNFDYWGQGTLVTVSS
VL: EIVMTQSPDFQSVTPKEKVTITCRASQDIYRNLHWYQQKPDQTPKLLIKHASDSISGIPSRFSGSGSGTDFTLTINSLEAEDAAAYYCLQGYSMPYTFGGGTKVEIKG
notes: human IgG1 N297G
B2: mAb1.v7.NGS11 IgG (antibody, V domains shown)
VH: EVQLVQSGAEVKKPGASVKVSCKASGFTFTNNFMHWVRQAPGQGLEWIGFIHANSGITNINEKFKNRVTMTTDTSTSTAYMELRSLRSEDTAVYYCRSDGVYEGYFDYWGQGTLVTVSS
VL: DIQLTQSPSSLSASVGDRVTITCKASQNVGTAIVWYQQKPGKAPKVLIYSASTRYTGVPSRFSGSGSGTDFTLTISSLQPEDFATYYCQQYSSSPLTFGQGTKVEIKG
notes: human IgG1 N297G

Biological target: T1, hu-CD96 isoform 2 on CHO cells
Assay: FACS, CD155-Fc-FLAG 10 nM, Ab 0.0064 nM
Experimental: CHO cells stably expressing isoform 2 of hu-CD96 (Origene, catalog #RC221005) were incubated with anti-CD96 antibodies for 20 minutes at 4° C. The cells were washed, and then incubated with 10 nM human CD155-Fc-FLAG for 30 minutes at 4° C. Cells were washed, and then human CD155-Fc-FLAG binding was detected by incubation with anti-FLAG-APC (Columbia Biosciences, catalog #D3-1718-1MG) for 20 minutes at 4° C. Cell binding was analyzed by flow cytometry with a CytoFLEX (Beckman Coulter). CD155 binding is represented as median fluorescence intensity (MedFI).
As shown in Table 20 (below), the anti-CD96 antibodies, mAb1.v7.NGS8, mAb1.v7.NGS9, mAb1.v7.NGS10, mAb1.v7.NGS11, and h10G1 inhibited soluble hu-CD155 binding to CD96-expressing CHO cells dose-dependently and potently. The antibody NK92.39 (Fuchs et al., 2004; Biolegend catalog #338405) inhibited receptor binding similarly.

| Binder | CD155-Fc binding (MedFI) |
| --- | --- |
| B1 | 65700 |
| B2 | 63600 |
